Measurements: the DeepSol protein solubility set

Experiment: soluble on expression in E. coli; label from the status in PepcDB or PDB records

| Sequence | soluble on expression in E. coli |
| --- | --- |
| MRSPYLIGVFLAAGKSRRMGQNKLALPLKGENIGSLSLKTALSSRLDHVLVVERTEHASLEWIGAPYHAPPFQKRWSLHVCQDAEKGQGHSVSSGVRKAESMGADGIVILLADQPQLSVDHLNALVALAPESFAVSSFLGAFTPPIYFSSTCFPYVKGLKGDEGARRLLKSGQLGAGAVLEAKDSGELDDIDTPRGILEHHHHHH | not soluble |
| MNGSADAGPRPRKYVFITGGVVSSLGKGILTSSLGALLRARGYRVTAIKIDPYVNVDAGTMRPYEHGEVFVTADGAETDLDIGHYERFLDMDLSRGNNLTTGQVYLSVIQKERRGEYLSQTVQVIPHITDEIKERIRKVAEEQKAEIVVVEVGGTVGDIESLPFLEAIRQFRFDEGEGNTLYLHLTLVPYLETSEEFKTKPTQHSVATLRGVGIQPDILVLRSARPVPEEVRRKVALFTNVRPGHVFSSPTVEHLYEVPLLLEEQGLGRAVERALGLEAVIPNLSFWQEAVRVLKHPERTVKIAIAGKYVKMPDAYLSLLEALRHAGIKNRARVEVKWVDAESLEAADLDEAFRDVSGILVPGGFGVRGIEGKVRAAQYARERKIPYLGICLGLQIAVIEFARNVAGLKGANSTEFDPHTPHPVIDLMPEQLEVEGLGGTMRLGDWPMRIKPGTLLHRLYGKEEVLERHRHRYEVNPLYVDGLERAGLVVSATTPGMRGRGAGLVEAIELKDHPFFLGLQSHPEFKSRPMRPSPPFVGFVEAALAYQERA | soluble |
| MYRSFFYPTRLALLAVGRNFMPMAWWMPASKEPFRFLLAVDRKNHTLSLLRELSEAALAFYPWEERAWVVRAGYLSGGRVDKARRLGVPLRPACCLAHTQVPEGALAVYEMRVSEWPWDGDHALFMGEVVHVEGSAEAKERPILFLGFRDFATLGERWRFRPGGAKPLPREERGKP | soluble |
| DSPPSESLPSADSNRTHIVNGVGAFQSKVHPSIVTVLYFPGPVTSAISSDDQSFETSIVGHSVVIRPAPNVTAKTVGNINITTRAMNVSLTMRIAERPEDAATQLVFRALSEVEAFETRVAAEVERVRQEVEHEYERRHRNLEREVTHATEQAIARRMLMRHEGREFGAIARNEHNIIARVTRAQWIGPELYLYFEIQNRDSTPYHLAHVRLLGPTGESDHVDHLEFAGAGDVIDGSLGTVLSGQRGRGIVHVRDAARFAGKPFTFLVSEARERRAVSIGGITW | not soluble |
| MTLSAIQPNDMALYHYDSCPFCAKTRHAINELDLNIELRNIQKNHQHRIELQQGGNKTQVPCLRIGQSNGKAQWLYESGDIINFLRNRK | not soluble |
| MATFGFLSAPLKSTNEVDLVKPLTSYIDNVYNTSDNNRSDVAEAVQELNKLRSKACCQPLDKHQSALDVLTRYYDQLVAIENKIIISATQNPVVFKWKDAFDKGSLFSSRASLSLSDGSFERAAVLFNIGSLMSQIGAAQQFHTDDEIKVSAKLFQQSAGVFARLRDVVLGMVQQEPTPDLMPDTLAALSALMTAQAQEAIYIKGHKDKMKATSMVKISAQVAEFYSEAQKMMSKDIVRGLWDKDWSAIVSGKNLAYQALAQYHQSEVCGEARQIGEQLSRLAESLKLFDTAQKYLPRDITGIWDIYPSVSKAHAAAKKDNDFIYHEKVSDFRTLPTLPKAVLAKPTPMQTPMTPSFRDMFAVLVPVQVHNAMQSYDARKAELVNMETVRMREATQLMNGVLASLNLPAALDDVTSTETLPESLKLKSAKLKQNGGSSEIMRLFSELPTLYQRNEDILTETSRILNEEKESDDTMRKQLGTKWTRMSSEQLTGPLVTEIGKYRGILHTASNADKMVKEKFESHRQGIELLSKNESELRSSIPGQTAHATGETDTVRQLRQFMSQWNEVTTDRELLEKELKNTNCDIANDFLKAMAENQLINEEHISKEKIAQIFGDLKRRVQSSLDTQETLMNQIQAANNTFTGEKTGSSTGAERERILKMLAQASDAYVELKANLEEGTKFYNDLTPILVRLQQKVSDFAFARQTEKEDLMRQLQLSIVSGTNAAQSPANAPPRPPPPRPAAPSVESPIPPPRTQQSMQATPGAPPQYNPYQQQQQPQMQQFQQHPGYYQQPMPYGQPQPMFQPQYQPTFAAPYPTFPGAFPSYQQQWPQQQQQGGFPPNPQFGQQNQQQGGGGGANPFQ | not soluble |
| MSLSTFDYDLIIIGSGPSGRAAAIQAGKLKRRVLVIDRKDRLGGVSVHTGTIPSKTLRETVLNLSGWRERSFYGRSYRVKDRISAEDLKARLHMTLDYEVDVLEHQFNRNHIDTLNGLARFVGPHEIEVATEAGDTTRLTAAKFLIATGTKTYRPDYVPFNGKTVVDGDDFLEMERIPRSLAVIGAGVIGVEYASMFSALDVRVTLIEPRETFLDFIDRTLIQEFTHQIRENGVDLRLGSAVEKIEDTGSHIEISLANGRHIRAEMLLFAAGRMGATSALNLDAVGLETDHRNRITVDRKTYQTSVPHIYATGDVIGHPSLASTSMQQGRVAACHALETPTLPESPWFPYGIYSVPEMSTCGMSEEELQERGIPYEVGVARFRETSRGHIMGLEHGMLKMLLSLKTRRVLGVQIVGEGATELIHIGQAVMNLKGTVDYFVQNTFNYPTLAEAYRTAGLDAFNRMPIPEEFKVKEGHHHHHH | soluble |
| MDNPTTPIAVVGPTASGKSALGVSLAHHLNGEVVNVDSMQLYKGMDIGTAKLTLEEREGIVHHLLDVWDISETASVARYQSQAIAVVEDIQRRGKTPILVGGSMLYVQSLVDDWQFPPTDPSVRAKWESKLNEVGVEALHALLAQKDPQAASIIELKDPRRTVRALEVIELTGKPFNASQPPKNAPPRWNTQIIGLGTNTEWLNPRIDLRTELMFEKGFVHEVENLVGKGLIADSTAGHAIGYAQVLQHFAGELSVDEMIEHTKIGTRRYVRRQRSWFKRDPRIHWIDASGDTFSMALSLLS | not soluble |
| MGSDKIHHHHHHQPAAGISDDMVKIGMLLDMSGLYADVTGRGSATAAQMAIDDFGGKVLGKKIELVVVDHQNKADIAANKAREWFDTGHVDAILDVAASAPALAVLDVAKQKNHIVVFSGPGSERITNDLCTPVSVHYAYDTYALANTTARAMVQRGGKTWFFLTADYAFGHTLQDSATAVINEAGGKVLGAARHPIGASDFASYLLQAQASKAQVVGLANAGGDTVNAIKAASEFGLTRNGAQRMAGLLLYINDIHAIGLKTASGLVLTEAFYWDMNDATRAWSRRYFEKVKKMPNMSQAGAYSSVMHYLKAVQAAGTDETAAVMKKMKSMPINDFFAKNGRIREDGRMIHDMYLFEVKSPAESKYPWDYYKVLATVPGDQAFMPASKSQCPLLKR | not soluble |
| MGSDKIHHHHHHMIVNLSRLGKSGTGMWQYSIKFLTALREIADVDAIICSKVHADYFEKLGYAVVTVPNIVSNTSKTSRLRPLVWYVYSYWLALRVLIKFGNKKLVCTTHHTIPLLRNQTITVHDIRPFYYPDSFIQKVYFRFLLKMSVKRCKHVLTVSYTVKDSIAKTYNVDSEKISVIYNSVNKSDFIQKKEKENYFLAVGASWPHKNIHSFIKNKKVWSDSYNLIIVCGRTDYAMSLQQMVVDLELKDKVTFLHEVSFNELKILYSKAYALVYPSIDEGFGIPPIEAMASNTPVIVSDIPVFHEVLTNGALYVNPDDEKSWQSAIKNIEQLPDAISRFNNYVARYDFDNMKQMVGNWLAESK | not soluble |
| MPHKNTKSNVQKITASVASVIVSTGIVMNSSNRRVKATGKREDEIVEVESLKRADTETTKAAAVQTPKINQTKKMSHRTQKVTQMIHYVDEDERPVYDDYTASLIFEQTGILDNVTGKQTWNSNWLPKTTATFSAVEHPVVRNHHLVNPEINEVSAYDVEVTDDTFKNPLLKVHKVVYAHDIEPIKRTQVVTQTIHYRYEDGAVAHDDHVVSLIFTQSGKRDLTNGKEIWDSKWSLTQTFEALPSPVIIGYTADKPMVGPDEVTVDSKNFLDKQNREETVIYSANTITQNKKDGISEEKNVNNSVAVAPLKSAVMIGGVISILKFKRLMVIIKNKKDHKLEHHHHHH | soluble |
| RAIPIKQSFLLKRSGNSLNKEWKKKYVTLSSNGFLLYHPSINDYIHSTHGKEMDLLRTTVKVPGKRPPRAISAFGPSASGSAGQAEEENFEFLIVSSTGQTWHFEAASFEERDAWVQAIESQILASLQ | soluble |
| MGSDKIHHHHHHMYGNKIVFSGLENIKDCCKMKITRDELLIAAFKLFMSVNYEKASFAELGKMLGMSKAGIFKYYKNKQELFIAVVDKFWFSTQNPRNKFTETNGTFAEFIDEYVRGVQRTMDMLGDLIGAEREKVAQGKFTYHAQYFHFLFQLLQYDPDAKEKLRNLVEVDYAYWRAAIQRAIATGELREDVDVEDAVVMFRQVYMGLSFEMAFMGGLNTQRLAKHLHAVYSLLKR | not soluble |
| QILSIDPLDISQNLAAVNKSLSDALQHLAQSDTYLSAI | soluble |
| MTRRDNEERVLHAATDTEQSQVTDLRQNVSATPLTDAEVGRLQLLEERATVQVERQGIGQVQVRKVVRERQEMVPVTLTTEVLEIVVTPAAQGTGAQNVGDTQTAAASAAGTTGNGGVSQVLIDGKPLEAGQTYEIPLTEERVQVMRQVVPLSEVVVRRQAQATTHEETVTLRREELEVLDEQGLARIVDEGAALEHHHHHH | soluble |
| MEFPDLGAHCSEPSCQRLDFLPLKCDACSGIFCADHVAYAQHHCGSAYQKDIQVPVCPLCNVPVPVARGEPPDRAVGEHIDRDCRSDPAQQKRKIFTNKCERSGCRQREMMKLTCDRCGRNFCIKHRHPLDHECSGEGHQTSRAGLAAISRAQGLASTSTAPSPSRTLPSSSSSSRATPQLPTRTASPVIALQNGLSEDEALQRALELSLAEAKPQVLSSQEEDDLALAQALSASEAEYQQQQAQSRSLKPSNCSLC | soluble |
| MHMSFDGMFTYGMTHELNEKIMGGRITKIHQPYKHDVIFHIRAKGKNQKLLLSAHPSYSRVHITAQAYENPSEPPMFCMLLRKHIEGGFIEKIEQAGLDRIMIFHIKSRNEIGDETVRKLYVEIMGRHSNIILTDAAENVIIDGLKHLSPSMNSYRTVLPGQDYKLPPAQDKISPLEASEDDILRHLSFQEGRLDKQIVDHFSGVSPLFAKEAVHRAGLANKVTLPKALLALFAEVKEHRFIPNITTVNGKEYFYLLELTHLKGEARRFDSLSELLDRFYFGKAERDRVKQQAQDLERFVVNERKKNANKIKKLEKTLEYSENAKEFQLYGELLTANLYMLKKGDKQAEVINYYDEESPTITIPLNPNKTPSENAQAYFTKYQKAKNSVAVVEEQIRLAQEEIEYFDQLIQQLSSASPRDISEIREELVEGKYLRPKQQKGQKKQKP | soluble |
| EAQTETCTVAPRERQNCGFPGVTPSQCANKGCCFDDTVRGVPWCFYPNTIDVPPEEESEF | soluble |
| GAMAMRIYYIGVFRSGGEKALELSEVKDLSQFGFFERSSVGQFMTFFAETVASRTGAGQRQSIEEGNYIGHVYARSEGICGVLITDKEYPVRPAYTLLNKILDEYLVAHPKEEWADVTETNDALKMKQLDTYISKYQDPSQADA | soluble |
| GPGSMFHRTTPEEEVRKWTRSLRSEQRKIELQITKIRREEAKVKLSMKQAAKQNDQVVMRMLAKEMIRSRKAVNRMYASKAQMNSVSMQLQNQASQMKMSGSLKKSGEIMKEMNSLVKVKEVQQSMMAMSKEMVKAGLIDEIMNDTIDEALDDDISDTELEDEVNKVVMDVVQGQMDGARVGASRIPAQQQQQQETAEEEEDELMEKLNALRNS | soluble |
